T1: FANCL URD-RING fragment (FANCL^UR, residues 109-375) (human, UniProt Q9NW38 109-375)
T1 sequence (looked up): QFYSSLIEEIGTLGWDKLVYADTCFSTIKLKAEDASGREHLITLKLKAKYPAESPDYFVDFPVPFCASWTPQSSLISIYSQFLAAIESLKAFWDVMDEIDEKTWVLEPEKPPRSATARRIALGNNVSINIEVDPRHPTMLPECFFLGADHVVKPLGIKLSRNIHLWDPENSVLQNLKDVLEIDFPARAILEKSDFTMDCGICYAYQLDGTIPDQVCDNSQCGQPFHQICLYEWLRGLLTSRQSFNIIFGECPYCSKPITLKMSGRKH

B1: Ube2T wildtype (enzyme, human, UniProt Q9NPD8 1-197, looked up)
chain: MQRASRLKRELHMLATEPPPGITCWQDKDQMDDLRAQILGGANTPYEKGVFKLEVIIPERYPFEPPQIRFLTPIYHPNIDSAGRICLDVLKLPPKGAWRPSLNIATVLTSIQLLMSEPNPDDPLMADISSEFKYNKPAFLKNARQWTEKHARQKQKADEEEMLDNLPEAGDSRVHNSTQKRKASQLVGIEKKFHPDV
B2: Ube2T backside β1 double mutant (T23R+W25Q or TW/RQ) (enzyme, human, UniProt Q9NPD8 1-197, looked up)
chain: MQRASRLKRELHMLATEPPPGIRCQQDKDQMDDLRAQILGGANTPYEKGVFKLEVIIPERYPFEPPQIRFLTPIYHPNIDSAGRICLDVLKLPPKGAWRPSLNIATVLTSIQLLMSEPNPDDPLMADISSEFKYNKPAFLKNARQWTEKHARQKQKADEEEMLDNLPEAGDSRVHNSTQKRKASQLVGIEKKFHPDV

Key:
Assay in all cases: ITC
[1] = target: T1, FANCL URD-RING fragment (FANCL^UR, …)
Ube2T wildtype = target: B1
[2] = target: B2

Kd [1]	dH [1]	Binder	also measured
~119 nM	6.46 kcal/mol	B1	
~119 nM	-1.65 kcal/mol	Ube2T loop2-loop7 hybrid mutant (D32A, D33A, L92A or DDL/AAA) (enzyme, human, UniProt Q9NPD8 1-197, looked up) MQRASRLKRELHMLATEPPPGITCWQDKDQMAALRAQILGGANTPYEKGVFKLEVIIPERYPFEPPQIRFLTPIYHPNIDSAGRICLDVLKAPPKGAWRPSLNIATVLTSIQLLMSEPNPDDPLMADISSEFKYNKPAFLKNARQWTEKHARQKQKADEEEMLDNLPEAGDSRVHNSTQKRKASQLVGIEKKFHPDV	
		Ube2T Glu54Arg (Ube2Tv1 variant with a permissive gate, E54R) (enzyme, human, UniProt Q9NPD8 1-197, looked up) MQRASRLKRELHMLATEPPPGITCWQDKDQMDDLRAQILGGANTPYEKGVFKLRVIIPERYPFEPPQIRFLTPIYHPNIDSAGRICLDVLKLPPKGAWRPSLNIATVLTSIQLLMSEPNPDDPLMADISSEFKYNKPAFLKNARQWTEKHARQKQKADEEEMLDNLPEAGDSRVHNSTQKRKASQLVGIEKKFHPDV	binding result [1]: binds
200 nM		B2	
		FANCL RING domain (FANCL^R, residues 289-375) (domain or fragment, human, UniProt Q9NW38 289-375, looked up) EIDFPARAILEKSDFTMDCGICYAYQLDGTIPDQVCDNSQCGQPFHQICLYEWLRGLLTSRQSFNIIFGECPYCSKPITLKMSGRKH	Kd (Ube2T wildtype): ~250 nM; binding result [2]: binds

Source: article doi:10.1101/429076 (bioRxiv, 2018)
